Assay results as given in the supplement of paper PMC7125110.
± gives the standard error. For part of these data: Fewer inactive variants are shown than the library holds.

B1: glmS ribozyme (parent)
chain: AUAAAAGCGCCAGAACUACAGAAAUGUAGUUGACGAGGAGGAGGUUUAUCGAAUUUUCGGCGGAUGCCUCCAAA

Tests used:
Details in all cases: with glucosamine-6-phosphate
glucosamine-6-phosphate [1] = variants of: B1; test: kcat; higher = faster cleavage; RNA array
Summary of the method: (§1)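 kcat and KM were obtained from weighted Michaelis–Menten fits across concentrations of kobs values. Those came from one- or two-exponential decay fits to per-tile medians normalised to baseline and to non-cleaving reference variants. The variants were barcoded ribozymes transcribed in situ by E. coli RNA polymerase on sequenced MiSeq chips and tracked through a hybridised Cy3 probe at 37 °C, with 40 μM to 10 mM glucosamine-6-phosphate in HEPES/KCl/Mg(OAc)2 buffer flowed in.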

glucosamine-6-phosphate [2] = variants of: B1; test: KM; higher = weaker cofactor use; RNA array
Summary of the method: as §1

glucosamine-6-phosphate [3] = variants of: B1; test: self-cleavage kobs at 40 uM GlcN6P; higher = faster cleavage; RNA array
Summary of the method: as §1

glucosamine-6-phosphate [4] = variants of: B1; test: self-cleavage kobs at 160 uM GlcN6P; higher = faster cleavage; RNA array
Summary of the method: as §1

glucosamine-6-phosphate [5] = variants of: B1; test: self-cleavage kobs at 640 uM GlcN6P; higher = faster cleavage; RNA array
Summary of the method: as §1

glucosamine-6-phosphate [6] = variants of: B1; test: self-cleavage kobs at 2500 uM GlcN6P; higher = faster cleavage; RNA array
Summary of the method: as §1

glucosamine-6-phosphate [7] = variants of: B1; test: self-cleavage kobs at 10000 uM GlcN6P; higher = faster cleavage; RNA array
Summary of the method: as §1

Row | Variant | kcat (glucosamine-6-phosphate [1]) [s⁻¹] | KM (glucosamine-6-phosphate [2]) [µM] | self-cleavage kobs at 40 uM GlcN6P (glucosamine-6-phosphate [3]) [s⁻¹] | self-cleavage kobs at 160 uM GlcN6P (glucosamine-6-phosphate [4]) [s⁻¹] | self-cleavage kobs at 640 uM GlcN6P (glucosamine-6-phosphate [5]) [s⁻¹] | self-cleavage kobs at 2500 uM GlcN6P (glucosamine-6-phosphate [6]) [s⁻¹] | self-cleavage kobs at 10000 uM GlcN6P (glucosamine-6-phosphate [7]) [s⁻¹]
1 | A12C A53U | 0.015 ± 0.0038 | 2160 ± 740 | 0.000376 ± 4.9e-05 | 0.000867 ± 0.00013 | 0.00317 ± 0.00041 | 0.0103 ± 0.0019 | 0.0121 ± 0.0016
2 | A12C A53G | 0.0568 ± 0.027 |  | 0.000585 ± 7.2e-05 | 0.00162 ± 0.00033 | 0.00569 ± 0.00072 | 0.0149 ± 0.0025 | 0.0471 ± 0.0076
3 | A12C A64G | 0.000378 ± 6.7e-05 | 1600 ± 500 |  |  | 0.000111 ± 1.5e-05 | 0.000209 ± 3.2e-05 | 0.000415 ± 0.0001
4 | A12U A42G U56A C67U | 0.004 ± 0.00068 | 794 ± 200 | 0.000207 ± 5.3e-05 |  | 0.00156 ± 0.00046 |  | 0.00431 ± 0.0015
5 | A12C A14C | 0.00082 ± 0.00025 | 6190 ± 2800 |  | 4e-05 ± 1.8e-05 | 7.98e-05 ± 2e-05 | 0.000201 ± 5.1e-05 | 0.000534 ± 0.0001
6 | A12U G29A A52U | 0.000494 ± 0.00016 |  |  |  | 4.42e-05 ± 1.6e-05 | 0.00021 ± 6.6e-05 | 0.000309 ± 7.1e-05
7 | C11U G37A | 7.88e-05 ± 6.9e-07 | 1070 ± 36 |  |  | 2.98e-05 ± 9.1e-06 | 5.51e-05 ± 9.5e-06 | 7.12e-05 ± 8.2e-06
8 | A12C U31G | 0.00416 ± 0.00048 | 2340 ± 410 | 8.48e-05 ± 1.8e-05 | 0.000245 ± 7.1e-05 | 0.00081 ± 0.00015 | 0.00237 ± 0.00075 | 0.00339 ± 0.00051
9 | A12G U56A | 0.00105 ± 0.00021 | 7960 ± 2300 |  | 4.26e-05 ± 1.7e-05 | 7.85e-05 ± 1.1e-05 | 0.000221 ± 4.8e-05 | 0.000592 ± 6.2e-05
10 | A12C U54G G66U | 0.00175 ± 0.00085 |  | 5.6e-05 ± 1.7e-05 | 8.77e-05 ± 1.3e-05 | 0.000245 ± 5.3e-05 | 0.000495 ± 0.00014 | 0.00164 ± 0.00028
11 | A12C G29U U47G | 0.00126 ± 0.00043 | 4280 ± 2100 |  |  | 0.000151 ± 3.1e-05 | 0.000697 ± 0.00018 | 0.000831 ± 0.00019
12 | A12G U65A | 0.0002 ± 5.7e-06 | 3880 ± 230 |  |  | 2.72e-05 ± 6.7e-06 | 7.94e-05 ± 8.3e-06 | 0.000143 ± 1.2e-05
13 | A12C C67G | 0.00173 ± 0.00067 |  | 6.89e-05 ± 6e-06 | 0.000199 ± 2.4e-05 | 0.000444 ± 5.8e-05 | 0.00106 ± 0.00012 | 0.00265 ± 0.00032
14 | A12G A64C | < 1e-05 |  | < 1e-05 |  |  |  | 
15 | A12G A64G | 0.000701 ± 0.00021 | 2560 ± 1100 |  | 6.59e-05 ± 1.7e-05 | 0.000128 ± 1.7e-05 | 0.000367 ± 5.3e-05 | 0.000537 ± 0.00017
16 | A12G C67G C68A | 6.18e-05 ± 2.3e-05 |  |  | 6.68e-05 ± 1.8e-05 | 0.000113 ± 2.6e-05 | 6.87e-05 ± 1.8e-05 | 

Row | Variant | kcat (glucosamine-6-phosphate [1]) [s⁻¹] | KM (glucosamine-6-phosphate [2]) [µM] | self-cleavage kobs at 40 uM GlcN6P (glucosamine-6-phosphate [3]) [s⁻¹] | self-cleavage kobs at 160 uM GlcN6P (glucosamine-6-phosphate [4]) [s⁻¹] | self-cleavage kobs at 640 uM GlcN6P (glucosamine-6-phosphate [5]) [s⁻¹] | self-cleavage kobs at 2500 uM GlcN6P (glucosamine-6-phosphate [6]) [s⁻¹] | self-cleavage kobs at 10000 uM GlcN6P (glucosamine-6-phosphate [7]) [s⁻¹]
17 | A12C C68U | 0.000589 ± 4.7e-05 | 1370 ± 220 |  | 6.12e-05 ± 8.3e-06 | 0.00018 ± 1.7e-05 | 0.000436 ± 3.7e-05 | 0.000494 ± 3.6e-05
18 | A12U C67U | 0.0497 ± 0.018 | 2250 ± 970 | 0.000918 ± 0.0001 |  | 0.0142 ± 0.0033 | 0.0421 ± 0.012 | 0.0378 ± 0.0074
19 | A12C G60C | < 1e-05 |  |  |  | < 1e-05 |  | < 1e-05
20 | A12G A15G C70A | 0.000107 ± 1.9e-05 | 2120 ± 890 |  |  |  | 5.85e-05 ± 1.1e-05 | 8.6e-05 ± 3.1e-05
21 | C11U A52U | 5.56e-05 ± 4.4e-06 | 1620 ± 690 |  |  |  | 3.57e-05 ± 1.8e-05 | 4.77e-05 ± 8.4e-06
22 | C11U A52G | 0.000164 ± 8e-06 | 1690 ± 270 |  |  | 4.15e-05 ± 1e-05 | 0.000109 ± 1.8e-05 | 0.000139 ± 1.1e-05
23 | A12U A36U | 2.03e-05 ± 6.7e-07 | 2080 ± 230 |  |  |  |  | 
24 | A12C U65A | 0.00216 ± 0.00024 | 2790 ± 570 | 3.82e-05 ± 8.1e-06 | 0.000134 ± 3.3e-05 | 0.000345 ± 6.5e-05 | 0.000932 ± 0.00017 | 0.00173 ± 0.00015
25 | A12G U57C | 1.17e-05 ± 1.7e-06 |  | < 1e-05 |  |  |  | 
26 | A12C G41A | 0.00163 ± 0.00065 |  | 7.57e-05 ± 9.1e-06 | 0.000107 ± 1.7e-05 | 0.000353 ± 3.5e-05 | 0.00105 ± 0.00012 | 0.00136 ± 0.00017
27 | C11U U65G | 0.000263 ± 6.3e-05 | 2580 ± 1200 | < 1e-05 |  | 6.28e-05 ± 3.1e-05 |  | 0.000227 ± 9.2e-05
28 | A12G C16U C34G C67G | 1.6e-05 ± 3.8e-06 |  |  |  |  |  | 
29 | C11U U49G | 1.33e-05 ± 1.3e-06 |  | < 1e-05 |  |  |  | 
30 | A12U C61G | < 1e-05 |  | < 1e-05 |  |  |  | 
31 | A12G U30C | 0.000109 ± 8.8e-06 | 3180 ± 800 |  |  | 2.84e-05 ± 1.3e-05 | 4.54e-05 ± 7.7e-06 | 8.29e-05 ± 5.8e-06
32 | A12C C34A | < 1e-05 |  | < 1e-05 | < 1e-05 | < 1e-05 | < 1e-05 | 
